Reference: the nanobody polyreactivity screen of Harvey et al. (2022)

Experiment: yeast display, Sf9 membrane polyspecificity reagent, FACS + sequencing; frameworks hold sequencing errors
Summary of the method: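 Polyreactivity labels are assigned by the sorting gate from which each nanobody was recovered. The gates were low and high (top ~1%), set on anti-HA fluorescence for expression and streptavidin fluorescence for reagent binding. Before sorting, galactose-induced (36–48 hours) yeast display cells were stained for 1 hour at 4 °C with 10% biotinylated, detergent-solubilized Sf9 membrane reagent.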
For “QVQLIESGGGLVQAGGSLRLSCAASGRTFRYNAMGWYRQAPGKERELVAGISTGGSTYYADSVKGRFTISRDNAKNTVYLQMNSLKPEDTAVYYCARYYHARPNGPRSDDYDYWGQGTQVTVSS”, the “polyreactivity (PSR sort gate)” value was “low polyreactivity”.
In the case of “QVQLLDAGGGLDQAGGSLRLRCAASGSIFRYYPMGWYRQAPGKQREMVASISWSGTSTYYADSVKGRFTISRDNAKNTVYLPRNSLKPEDTAVYYCNKDRWGRYYTRYDYWGQGTQVTVSS”, the “polyreactivity (PSR sort gate)” value is reported as “high polyreactivity”.
In the case of “QVQLLDSGGGLVQAGGSLRLSCAASGSTIAYYDMGWYRQAPGKERELVAAISWSGGSTYYADSVKGRFTISRENAKKTVYLQMNSLKPEDTAVYYCNRLLGYFTDSSGSPMGYWGQGTQVTVSS”, the “polyreactivity (PSR sort gate)” value is reported as “high polyreactivity”.
In the case of “QVQLLESGGCLGLAGASLRLSCAASGSTFSTYAMGWYRPAPGKERELVAAITRRGGRTYYADSVKGRFTISRDNAKNTVYLQMNCLKPEDTAVYSCNVLSGLFVQAEYDYWGQGTKVTVSS”, the “polyreactivity (PSR sort gate)” value is reported as “high polyreactivity”.
In the case of “QVQLLESGGGIVQEGGSLRLSCAASGRIFSPYAMGWYRQAPGKERELVAAITWSGVSTYYADSVKGRFTLSRDNAKNSVYFQMNSLKPEDTAVYYSAVDPRGHEGVRYNYWVQGTQVTVSS”, the “polyreactivity (PSR sort gate)” value is reported as “low polyreactivity”.
In the case of “QVQLLESGGGLFQAGGSLRLICAASGRIFDENAMGWYRQAPRKDREMVAAISWSGGITYYADSVKGRFTISRDYAKNNVYLQMNSLKPEDTAVYYCAADIFQGYTFYQGYPGGAGYWGQGTQVTVSS”, the “polyreactivity (PSR sort gate)” value is reported as “low polyreactivity”.
In the case of “QVQLLESGGGLVKAGGSLRLSCPASGIIFYEYVMGWYRQAPGKERELVAAINRSGGSKYYADSVKGRFTISRDNAKNTVYLQMNSLKPEDTAVYYCAAKPYYFYGMDYWGQGTQVTVSS”, the “polyreactivity (PSR sort gate)” value is reported as “high polyreactivity”.
For “QVQLLESGGGLVLAGGRIRLSCAASGRTYRYTMGWNRQSPGKERELVAAISRSGGSTYYADSVKGRFTISRDNAKNSFYLQMNSLKPEDTAVYYCAKVIYRYNETYDYWGQGTQVTVSS”, the “polyreactivity (PSR sort gate)” value was “high polyreactivity”.
For “QVQLLESGGGLVQAGGSLPVSCAASGSTFDTNDMVWYRQAPGKERELVAAISSGGDYADSVKGRFTISRDNAKNTVYLQMNSLKPEDTAVYYCAKDDTKWGQGTQVTVSS”, the “polyreactivity (PSR sort gate)” value was “low polyreactivity”.
In the case of “QVQLLESGGGLVQAGGSLRISCAASGFIFDYYMGWYRQAPGKERELVARISYTGGSTYYADSVKGRFTISRDNAKNTVYLQMNSLKPEDTAVYYCATRGAEAERFASYEFDYWGQGTQVTVSS”, the “polyreactivity (PSR sort gate)” value is reported as “low polyreactivity”.
With “QVQLLESGGGLVQAGGSLRLRCAASGTIFRISYMGSYRHAPGKEREFVAAITYCANTYYADSGKGRFTISRDNAKKTVYLHMNSLKPEDTAVYYCAVPPVKETFLDYWGQGTQVTVSS” the “polyreactivity (PSR sort gate)” value was “low polyreactivity”.
With “QVQLLESGGGLVQAGGSLRLRCASSGRIFVYYAMGWYRQAPGKERELVAANRWTGGSTYYADSVKGRFTISRDNAKNTVYLQMNSLKPEDTAVYYCATVNRYGHFNYWGQGTQVTVSS” the “polyreactivity (PSR sort gate)” value was “high polyreactivity”.
With “QVQLLESGGGLVQAGGSLRLSCAASGFSFEYYAMGWSRQAPGKDRELVAAIRSVSGTNYADSVKGRFTISRDNAKNTVYLQMNSQKPEDTAVYYCAKLRYPYLFLDDSEYWGQRTQVTVSS” the “polyreactivity (PSR sort gate)” value was “low polyreactivity”.
For “QVQLLESGGGLVQAGGSLRLSCAASGFTFKRNAKGWYRQAPGKEREFVAAITSSGGSTYYADSVKGRFTISRDNAKNTVYLQMNSLKPEDTAVYYCAARSKGAYPTRPLPGGYGYWGQGTQVTVSS”, the “polyreactivity (PSR sort gate)” value was “high polyreactivity”.
With “QVQLLESGGGLVQAGGSLRLSCAASGFTFWYYAMVWYRQAPGKERELVAAITRGGSTNYADSVKGRFTISRDNAKNTVYLQMNSLKPEDTAVYYCAATIYDYNRAGKYYYWGQGTQVTVSS” the “polyreactivity (PSR sort gate)” value was “high polyreactivity”.
With “QVQLLESGGGLVQAGGSLRLSCAASGIIFGYYAMGWYRQAPGKERELVAAITWSGGSTYYADSVKGRFTISRDNAKNTVYLQMNSLKPEDTAVYYCNADDDGRVSSTIVEYWVQGTQVTVSS” the “polyreactivity (PSR sort gate)” value was “low polyreactivity”.
In the case of “QVQLLESGGGLVQAGGSLRLSCAASGITFLLNAMGWYRQAPGKERELVAAISRSGGRTYYADSVKGRFTISRDNAKNTVYLQMNSLKPEDTAVYYCAVVTQFGDGYYWGQGTQVTVSS”, the “polyreactivity (PSR sort gate)” value is reported as “high polyreactivity”.
